Data as given in a protein production outcome set (Wang et al. 2014).

Assay: label from the status in PepcDB records
For “MFPAQEEADRTVFVGNLEARVREEILYELFLQAGPLTKVTICKDREGKPKSFGFVCFKHPESVSYAIALLNGIRLYGRPINVQYRFGSSRSSEPANQSFESCVKINSHNYRNEEMLVGRSSFPMQYFPINNTSLPQEYFLFQKMQWHVYNPVLQLPYYEMTAPLPNSASVSSSLNHVPDLEAGPSSYKWTHQQPSDSDLYQMTAPLPNSASVSSSLNHVPDLEAGPSSYKWTHQQPSDSDLYQMNKRKRQKQTSDSDSSTDNNRGNECSQKFRKSKKKKRY”, the protein production was “not failed”.
With “MFPFTHVHAFNKGNEEVYMDVENGKNGEGSVFRMPLHYPRYSKEDYQDMPEWKLDRVLADYGLSTYGDLAHKRDFAIGAFLWISTRNPKLYQEKSINSKLKKDTKSAHA” the protein production was “failed”.
In the case of “MFPSFITHIQSPNSHHHYSSPSFPFSSDFLESFDESFLINQFLLQQQDVAANVVESPWKFCKKLELKKKNEKCVDGSTSQEVQWRRTVKKRDRHSKICTAQGPRDRRMRLSLQIARKFFDLQDMLGFDKASKTIEWLFSKSKTSIKQLKERVAASEGGGKDEHLQVDEKEKDETLKLRVSKRRTKTMESSFKTKESRERARKRARERTMAKMKMRLFETSETISDPHQETREIKITNGVQLLEKENKEQEWSNTNDVHMVEYQMDSVSIIEKFLGLTSDSSSSSIFGDSEECYTSLSSVRGTISAAGNSNVLTKNPN”, the protein production is reported as “failed”.
With “MFREFINLLFMQFKMIKAYLPVFIFFSILFPLGFIFSFGTIIQRTLSTYLISGSITFFISINSIISVAQNLALERSSGRFSLMIASGIPIQLYAISITISNGIQTLMLIPVFLVLGYFLLGVRISSALFFVLSIIGSIYMASMVGLLIGTAIRNLHAVNQWSSIIGFILSFFAPVYFPLTQIPLPFRYLAYLEPTTYVSQSTYFALVGNPISLAWFGGTVVIGFLFSFLSSLLMKKAF” the protein production was “failed”.
With “MFRRPRLRALSALVLAALTLPAVAQQVLIRGATVHTATSQGTLRNTDVLVQGGVIRAIGTGLAVPTHGRVVEAKGRPLTPALFGGITEIGIEEVSGEAATVDSGVKLTEQPMRPEFDVTLAYNPDSVLIPVARVEGIGFTALGATTSGAFIAGQGGIVRLDGGPDPVGPHALFVRLGAAASDLTGSSRAAQWMLLDQLVAEARGRVPADSPHALLTPVGRSVLANYLAGRGRIVVQVERAADIRQLLRWAQREKVRIAIAGGTEAWKLAPQLAQAKVPVLVDALADLPSTFDQIGATLENAARLRAAGVEVSFTQSGDASHNARKLRQLAGNAVANGLPWESGLAGLTRVPAEIFGVGDRIGSIAVGKQADLVLWDGDPLDVAHYAEQVWMGGRDMPMRSRQTDLRDRYLQQAGPLPRAYQR” the protein production was “failed”.
With “MFRSFPVDSPHVYLRWVAISISQPVIRHGSSVVFVGGTPASSFLWPLCINRQNQIQTHFLKSFRIQEFLPRKSQCSRVTTIKETIFYPICLKSSKQIIVNATTFQCINYLLPIQFAYRNEPFRKFFATRIDFSSNQIERTNHSNRI” the protein production was “failed”.
With “MFRSKSCREETRSSSITNKYHCFSHGEKSESEPTNQQPPVMMRSYSTSTYNAYQNPTIVRDDSNNKSKRSNKVKKKGFKGLCEAEIQRKKRVASYNVYGVEGRVKGSMKKSFKWFKETCSNAVYGLW” the protein production was “failed”.
For “MFSAKKLSPADKLKNISSMLEEIVEDTTVPRNIRAAADNAKNALHNEEQELIVRSATAIQYLDDISEDPNMPIHTRTQIWGIVSELETIKN”, the protein production was “not failed”.
In the case of “MFSIIWMLFTPLLLLCGIAGGIFLIVTGIKYRKLLVGLMGLLSLSFVTLPFVLLSVGIHIDTIFPIPTALYWTLFSLTGLLAGVSGVQAKIKSIRNMGFIIFTIGILGVIFWELMSVGDSFYI”, the protein production is reported as “failed”.
In the case of “MFSILLPTWNNLALLKLCVQSIRAHSAHDHQIIVHVNDGSDGTLAWVREQGLDHTHSPGNVGICLAVNESAMLARHDYIVYLNDDMVCCPGWDTALLRRLDTLDTDLFMLSGTMIEPVDTGNPCVVVGNYGRDADTFDAARLLADVPRLARGDWLGATWPPTLVHRRWWFKLGGYSSELTPGMSSDNDFSMKLWHAGCRIFLGAGDSLVYHFQCKSTGKVKKNDGRRQFLNKWGLSQSTFDKYFLRRGTPAGADWRLPEPELTSALRWDLRRNDLTRRLRPGVPVLLEHHHHHH”, the protein production is reported as “not failed”.
With “MFSIQQPLLVFSDLDGTLLDSHSYDWQPAAPWLTRLREANVPVILCSSKTSAEMLYLQKTLGLQGLPLIAENGAVIQLAEQWQEIDGFPRIISGISHGEISLVLNTLREKEHFKFTTFDDVDDATIAEWTGLSRSQAALTQLHEASVTLIWRDSDERMAQFTARLNELGLQFMQGARFWHVLDASAGKDQAANWIIATYQQLSGKRPTTLGLGDGPNDAPLLEVMDYAVIVKGLNREGVHLHDEDPARVWRTQREGPEGWREGLDHFFSAR” the protein production was “not failed”.
In the case of “MFSRVPQPLAFAEALLAQFGALSRETDITALLGGFARAVGELSGCELSQLYLLDQTHTALTLNAECRDGLLQALEPSSLPADYTGEQLLQFALCQNRVVSLVDLPSRLHETGFLPAGEQPWLSLLCVPLVSPEKTVEGMVVCATRRPLDLQGFAHPLGQLGSFVLAQLHLLQRLSQPSGE”, the protein production is reported as “not failed”.
With “MFSVNNTHSSVSCSPSINSNSTSNEHYLRILTEWEKNSSPGEERGIAFNRLSQCFQNQEAVLNLSDLNLTSLPELPKHISALIVENNKLTSLPKLPAFLKELNADNNRLSVIPELPESLTTLSVRSNQLENLPVLPNHLTSLFVENNRLYNLPALPEKLKFLHVYYNRLTTLPDLPDKLEILCAQRNNLVTFPQFSDRNNIRQKEYYFHFNQITTLPESFSQLDSSYRINISGNPLSTRVLQSLQRLTSSPDYHGPQIYFSMSDGQQNTLHRPLADAVTAWFPENKQSDVSQIWHAFEHEEHANTFSAFLDRLSDTVSARNTSGFREQVAAWLEKLSASAELRQQSFAVAADATESCEDRVALTWNNLRKTLLVHQASEGLFDNDTGALLSLGREMFRLEILEDIARDKVRTLHFVDEIEVYLAFQTMLAEKLQLSTAVKEMRFYGVSGVTANDLRTAEAMVRSREENEFTDWFSLWGPWHAVLKRTEADRWAQAEEQKYEMLENEYSQRVADRLKASGLSGDADAEREAGAQVMRETEQQIYRQLTDEVLALRLSENGSRLHHS” the protein production was “not failed”.
With “MFTGFNWQQMISAFIVLFAVIDIIGSIPIIINLKEKGKDVNATKATVISFALLIGFFYAGDMMLKLFHVDIESFAVAGAFVIFLMSLEMILDIEIFKNQGPIKEATLVPLVFPLLAGAGAFTTLLSLRAEYASVNIIIALILNMLWVYFVVSMTGRVERFLGKGGIYIIRKFFGIILLAISVRLFTANITLLIEALHKS” the protein production was “failed”.
In the case of “MFTINTKSQLPIYEQIVQKIKEQVVKGILQEGEKILSIREFASRIGVNPNTVSKAYQELERQEVIVTVKGKGTFIADQTEKNSSPKKLAETKIKLKEIILDLVYLGINVEEIHKLSVEYSQDIIGGDKI”, the protein production is reported as “failed”.
In the case of “MFTLFAIQFFTTAAAVAFLLTELMGGFMLLFDWKNSGQKIMTYVAPIWEVTGTFLAMFVVETDATFAGILIPAAFAFAALLLIFLILFIVRNVAIILGEFAGSRKIFTDRQLYYIYVIATLLISVVFLAFSSAIISGNGVKIDIAGNPVDSLLSVSNAEISFNLASWLAGPGDILFVVSAALIAFGLSPVFYDVDRFSTYGVISSVIGFILGIVSFVQMGVHISPIIIIPAIIIIGVPILYRIGLAKKILTNKALFIVLLIVSIYSLYFTVYPSAMNGKLPLSQIITTGPMVIGTILTTVVGFTLLAFMLSLYVYVNYRSSRNQMTTLPK”, the protein production is reported as “failed”.
With “MFVGVDHAGRDWSWKEPGSTKACRNFMITLFAEWALPATTGQASGRRAMARKFMVPALAVLAFAIAAPAFAQVPANIAKAVADPSRPAAETARDAARRPGEILAMAELKPGDTVVDYIMGGGYFTRIISGAVGPQGVVYAYQPAEFIRFAARYGESLKAVTAALANSKPLDGPITALDLPDNVDAVITVQNYHDMHLKPFPTDTAAKANAEIFKSLKPGGVFLVIDHSAIAGSGITAADTLHRIDIAAVKQEVEAAGFKLEAESGLLADPADARTINVFDPAIRGKTDQFILKFRKPK” the protein production was “failed”.
In the case of “MFVHLSVELMQHLSAAALAFTVVTYVVLDGTDLGVGMLFAANRSDADRHLMAYSILPVWDGNETWLVLGGGSLLAMFPSAYAIFLNATYVPLVVMLLALICRGVALEYRDQLGTDRRRRVLDVVFMVASLLATFCQGVVAGTYLAGVAHRAGQYAGNGREWLQPFPLFCGVALVVGYLLLGACWLVWRSEGQLQQRARHQARVLGIVLGALLTLGVVWLARLTPIYAQRLGDAHISVPLGTSVLGLMVAMYLLMRSRHAFLPLFAVLGVVVATYAGVLAIVYPMVLPPDITLAQAASPPASQGVMLLAFAVLVPCTLAYSSYGFYVFRGKVKPRGHAAE”, the protein production is reported as “failed”.
With “MFVNSNGYNLGVREDEVVVNDVDLPPWAKKPEDFVRINRMALESEFVSCQLHQWIDLIFGYKQRGPEAVRALNVFHYLTYEGSVNLDSITDPVLREIPEAYFIRDPHTFLLTKDFIKAMEAQIQNFGQTPSQLLIEPHPPRSSAMHLCFLPQSPLMFKDQMQQDVIMVLKFPSNSPVTHVAANTLPHLTIPAVVTVTCSRLFAVNRWHNTVGLRGAPGYSLDQAHHLPIEMDPLIANNSGVNKRQITDLVDQSIQINAHCFVVTADNRYILICGFWDKSFRVYSTETGKLTQIVFGHWDVVTCLARSESYIGGDCYIVSGSRDATLLLWYWSGRHHIIGDNPNSSDYPAPRAVLTGHDHEVVCVSVCAELGLVISGAKEGPCLVHTITGDLLRALEGPENCLFPRLISVSSEGHCIIYYERGRFSNFSINGKLLAQMEINDSTRAILLSSDGQNLVTGGDNGVVEVWQACDFKQLYIYPGCDAGIRAMDLSHDQRTLITGMASGSIVAFNIDFNRWHYEHQNRY” the protein production was “failed”.
In the case of “MFVTLQTVQESEKEILRNLYALYLHDLSTFTSNITIGANGFFEYEDLHMFWVNDGITPYFIKSDNEIVGFLLLLERPFLKKENDFGINDIFILNQYKGKGIGKQVIESLLKEKRGQYFVIELVKNVPAVSFWKKVYRELNIEFDEKIQLIDDEECLVQTFEI”, the protein production is reported as “failed”.
With “MFYFMTLSFIIMPALGCFLIGLVLAKSDRWTFSWILSLIGLVAFISSFWHIERADLWFMLSYSFGPFLMGFGFTWDLSNKRRMQLLLLGLFFLIFFMILYYLIVRILNTAVV” the protein production was “failed”.
In the case of “MFYILNNVLKNIKTLDNVKSKFFLKDSFLKNKLKANNLDDNLSSHIFFNEIFVSLRDDEKKEEHKKVLLFNKVRNDKKHRKRAFQKRGYWKKMHYFIRKNNMMSYAFKVQNIDYEKIKKLKRGEVYSN”, the protein production is reported as “failed”.
With “MGAVTDDEVIRKRLLIDGDGAGDDRRINLLVKSFIKWCNSGSQEEGYSQYQRMLSTLSQCEFSMGKTLLVYDMNLREMENYEKIYKEIECSIAGAHEKIAECKKQILQAKRIRKNRQEYDALAKVIQHHPDRHETLKELEALGKELEHLSHIKESVEDKLELRRKQFHVLLSTIHELQQTLENDEKLSEVEEAQEASMETDPKP” the protein production was “failed”.
In the case of “MGCGFSRQHVVKTNVSSFDRELLDLKIQRDSLQQYEQRLSDSLKNYIKLARRLVAENQRQQALVVLQVKHALQKSIEKAQNMRFNLEQVLSEIELKQIETDYVLKLRTGTKLLQSIQKTLSIEEIEHLLEETKEAIEFQNKVTEVLGSFSLMEIDESCEEELEQLETAMFPPVPKRLEKTMTPQVTENMQVKSETAKEYSKQESILLPS”, the protein production is reported as “not failed”.
For “MGCVRDLTQRGMRQGAKPVRYFGERTDVSDLLAHTLQTVADILGPHGPATKAAEHSYTPNDYSIHFFLQLAVILLACRVTGWFGKKFLAQPQVVGEMIAGVVLGPSLLGLLFPDFQLSLFPKETRNILYVGAQLGVGLYMFLVGASFQAGHFKTKARSAMSVSFAGIAAPFAIAVIITPFLLKVPGLFAPTITPGAATLFMGACIALTAFPMLARIINERGLQKTSLGTLSLTAGAFDDAVSWCVLAVVLAMFGGGPGVAVLAIGGGLLWVLFVLTLGPKILAPLGRMVEREGELSAHALALVILAFCVSAFLMDAVGIHAIFGGFIMGVVMPRGLLTQELKKKVEPLVVVLLLPMFFTYSGLNTRLDMVNSLDLLLIALGILACSILAKWGACYVAARATGEDHATAMGIGALMNSRGLMELIIINIGLQKGIIGPTLFAMLVLMAIVTTMMASPLFEIVYGKKARERGELDAVPDAKRA”, the protein production was “failed”.
